# Reference: publication PMC11597096, “Unite and Conquer: Association of Two G-Quadruplex Aptamers Provides Antiproliferative and Antimigration Activity for Cells from High-Grade Glioma Patients”
# Biological target: PARP1 (Homo sapiens, UniProt P09874 1-1014)
# Test: BLI; no competitor; kon 6.6 ± 0.34 (10^5 M-1 s-1), koff 1.28 ± 0.04 (printed as 10^2; 10^-2 s-1 implied); BLI: 1x PBS pH 7.4, 25 °C, SAX biosensors, biotinylated oligo loaded at 2 uM, PARP1 2.5-162 nM. Pull-down: 25 mM Tris-HCl pH 7.4, 150 mM NaCl, 1 mM EDTA, 1% NP-40, 5% glycerol, 0.1 mM DTT, room temperature
# Conditions: protein: recombinant; label: 5'-biotin; bi-modular G4 with parallel chain stacking
# Sequence of PARP1 (P09874 whole entry): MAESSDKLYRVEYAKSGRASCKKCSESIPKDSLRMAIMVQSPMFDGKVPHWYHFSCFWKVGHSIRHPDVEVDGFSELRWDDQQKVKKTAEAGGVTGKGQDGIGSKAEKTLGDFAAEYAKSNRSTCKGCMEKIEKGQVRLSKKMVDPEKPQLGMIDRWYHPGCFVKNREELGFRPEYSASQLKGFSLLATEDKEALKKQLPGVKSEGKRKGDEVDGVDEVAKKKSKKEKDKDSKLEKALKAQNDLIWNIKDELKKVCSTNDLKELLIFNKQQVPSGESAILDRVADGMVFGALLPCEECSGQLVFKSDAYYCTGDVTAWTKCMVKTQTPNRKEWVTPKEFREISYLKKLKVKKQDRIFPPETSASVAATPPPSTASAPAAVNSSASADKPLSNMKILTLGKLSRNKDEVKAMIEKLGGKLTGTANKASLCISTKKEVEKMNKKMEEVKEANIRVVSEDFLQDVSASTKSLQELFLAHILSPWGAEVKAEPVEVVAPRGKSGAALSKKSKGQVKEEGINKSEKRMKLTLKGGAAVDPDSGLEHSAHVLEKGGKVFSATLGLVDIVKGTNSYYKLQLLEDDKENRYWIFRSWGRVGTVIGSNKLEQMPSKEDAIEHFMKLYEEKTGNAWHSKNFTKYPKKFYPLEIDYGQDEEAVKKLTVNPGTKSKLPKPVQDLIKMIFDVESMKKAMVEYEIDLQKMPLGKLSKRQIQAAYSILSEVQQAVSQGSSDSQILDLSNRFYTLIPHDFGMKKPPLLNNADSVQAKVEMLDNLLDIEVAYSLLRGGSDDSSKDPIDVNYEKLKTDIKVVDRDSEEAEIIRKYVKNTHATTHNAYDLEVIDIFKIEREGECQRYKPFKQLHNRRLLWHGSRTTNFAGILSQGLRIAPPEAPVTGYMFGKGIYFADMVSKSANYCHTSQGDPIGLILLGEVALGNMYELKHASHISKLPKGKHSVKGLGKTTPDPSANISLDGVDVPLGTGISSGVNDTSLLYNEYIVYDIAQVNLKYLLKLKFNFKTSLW
binder,measurement,value
GGGTGGGTGGGTGGGTTTGGGTGGGTGGGTGGG (structured_DNA) [bi-(AID-1-T)],Kd,19.4 ± 0.7 nM
